Tests used:
[1] = tested on: HMG-box Pf (HMG-box domain of HMGB1) (Plasmodium falciparum); test: MST; details: MST: 50 nM aptamer with probeFAM (4:1), PBS, room temperature, protein 0.1 nM-2 uM, stopped-flow: SELEX buffer (100 mM NaCl, 1.5 mM KCl, 5 mM MgCl2, 6 mM …)
[2] = target: HMG-box Hs (HMG-box domain of human HMGB1) (Homo sapiens) (UniProt P09429); test: MST; details: MST: 50 nM aptamer with probeFAM (4:1), PBS, room temperature, protein 0.1 nM-2 uM; stopped-flow: SELEX buffer (100 mM NaCl, 1.5 mM KCl, 5 mM MgCl2, 6 mM …)
Chain of UniProt P09429 (P09429 whole entry, the tested form may be a part): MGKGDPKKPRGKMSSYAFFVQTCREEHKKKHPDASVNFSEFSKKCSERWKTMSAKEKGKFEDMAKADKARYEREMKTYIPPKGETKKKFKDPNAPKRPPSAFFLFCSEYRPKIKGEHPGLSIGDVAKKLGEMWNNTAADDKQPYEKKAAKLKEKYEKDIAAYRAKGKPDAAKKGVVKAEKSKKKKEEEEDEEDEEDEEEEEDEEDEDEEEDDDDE

Row | Sequence | Kd [1] [nM] | Kd ([1]; separate S4 experiment) [nM] | fold lower affinity than HMG-box Pf (fold lower affinity than HMG-box Pf) [2]
1 | TAGGGAAGAGAAGGACATATGATACCGACTACGTCAACCTGGGTCTGCTCGGGATTGCGGATGTTGACTAGTACATGACCACTTGA [PfR4] | 41 |  | 
2 | TAGGGAAGAGAAGGACATATGATACCGACTACGTCAACTTGGGTCTGCTCGGGATTGCGGATGTTGACTAGTACATGACCACTTGA [PfE2] | 55 |  | 
3 | TAGGGAAGAGAAGGACATATGATAGATGCAAAGGACTGCTCAGGCTTGCGATGGCAGCTTCATTTGACTAGTACATGACCACTTGA [PfR2] | 778 |  | 
4 | TAGGGAAGAGAAGGACATATGATAGCCGTGGATTGCAAAGGGCTGCTGTGGCTTAGTTGAATGTTGACTAGTACATGACCACTTGA [PfR5] | 560 |  | 
5 | TAGGGAAGAGAAGGACATATGATAGTTTACACCAAGGACTGCTTAGGATTGCGTTAGGGTATTTTGACTAGTACATGACCACTTGA [PfE3] | 815 | 740 | 10
6 | TAGGGAAGAGAAGGACATATGATCACTAGGTCTGCTTAGGATTGCGTAAGTGAAAGTCATTTATTGACTAGTACATGACCACTTGA [PfR3] | 1930 |  | 
7 | TAGGGAAGAGAAGGACATATGATCGCGTGGGTTTGGCTCCGGGCCTGGCGGATGCACGTATAGTTGACTAGTACATGACCACTTGA [PfR6 (PfR6FAM)] | 65 | 64 | 
8 | TAGGGAAGAGAAGGACATATGATGAGAAGGACTGCTTAGGCTTGCGATGTGAAATCTGTAATCTTGACTAGTACATGACCACTTGA [PfR1] | 175 |  | 
9 | TAGGGAAGAGAAGGACATATGATGCCGACTACGTCAACCTGGGTCTGCTCGGGATTGCGGATGTTGACTAGTACATGACCACTTGA [PfE1] | 81 |  | 

— publication PMC6456224
